Source: article PMC5529588, “OsFH15, a class I formin, interacts with microfilaments and microtubules to regulate grain size via affecting cell expansion in rice” (Scientific Reports, 2017)

Target: actin filaments (rabbit muscle actin, polymerized) (rabbit, UniProt P68135 1-377)
Experiment: co-sedimentation; high-speed cosedimentation; 3 uM actin (AFs) with 0.25-8 uM FH1FH2; bound against free protein fitted with a hyperbolic function; three independent experiments; methods in the supplement
Details: both partners purified

Kd: 1.51 ± 0.07 µM
B1: OsFH15 FH2 (truncated recombinant protein containing the FH2 domain of OsFH15) (domain or fragment)
chain: not shown
notes: OsFH15, class I formin of Oryza sativa, 788 a.a; source: E. coli Transetta (DE3), pET-30a(+), purified (Ni-NTA)
